The target of the test is human serum albumin (human), P02768. Nature of the test: sandwich ELISA, HSA coated at 10 µg/ml, conjugate at 1 µM, detection with anti-FITC antibody.

B1: DOM7h-8cys/FITC conjugate (protein)
VL: DIQMTQSPSSLSASVGDRVTITCRASQSISSYLNWYQQKPGKAPKLLIYRNSPLQSGVPSRFSGSGSGTDFTLTISSLQPEDFATYYCQQTYRVPPTFGQGTKVEIKC
modifications: not checked
With B1, the OD600 came out at 0.38 OD600.

Source of the values: patent publication US20090111745A1.
